Test results published in the supplement of paper PMC11246515.
± gives the standard deviation of the averaged measurements.

Assay: total protein half-life in vivo (active degradation + dilution); higher = more stable protein
[1] = E. coli NCM3722 delta-clpP delta-lon delta-hslV, growth: N-lim chemostat, doubling time 6 h
[2] = E. coli NCM3722 delta-clpP, growth: N-lim chemostat, doubling time 6 h
[3] = E. coli NCM3722 delta-hslV, growth: N-lim chemostat, doubling time 6 h
[4] = E. coli NCM3722 delta-lon, growth: N-lim chemostat, doubling time 6 h
[5] = E. coli NCM3722 delta-smpB, growth: N-lim chemostat, doubling time 6 h
[6] = wild type E. coli NCM3722, growth: C-lim chemostat, doubling time 3 h
[7] = wild type E. coli NCM3722, growth: C-lim chemostat, doubling time 6 h
[8] = wild type E. coli NCM3722, growth: C-lim chemostat, doubling time 12 h
[9] = wild type E. coli NCM3722, growth: N-lim chemostat, doubling time 6 h
[10] = wild type E. coli NCM3722, growth: N-lim chemostat, doubling time 12 h
[11] = wild type E. coli NCM3722, growth: P-lim chemostat, doubling time 6 h
[12] = wild type E. coli NCM3722, growth: P-lim chemostat, doubling time 12 h

Sequence | total protein half-life in vivo [1] [h] | total protein half-life in vivo [2] [h] | total protein half-life in vivo [3] [h] | total protein half-life in vivo [4] [h] | total protein half-life in vivo [5] [h] | total protein half-life in vivo [6] [h] | total protein half-life in vivo [7] [h] | total protein half-life in vivo [8] [h] | total protein half-life in vivo [9] [h] | total protein half-life in vivo [10] [h] | total protein half-life in vivo [11] [h] | total protein half-life in vivo [12] [h]
MNQIDRLLTIMQRLRDPENGCPWDKEQTFATIAPYTLEETYEVLDAIAREDFDDLRGELGDLLFQVVFYAQMAQEEGRFDFNDICAAISDKLERRHPHVFADSSAENSSEVLARWEQIKTEERAQKAQHSALDDIPRSLPALMRAQKIQKRCANVGFDWTTLGPVVDKVYEEIDEVMYEARQAVVDQAKLEEEMGDLLFATVNLARHLGTKAEIALQKANEKFERRFREVERIVAARGLEMTGVDLETMEEVWQQVKRQEIDL [P0AEY3] | 4.85 ± 0.48 | 4.1 ± 0.46 | 2.49 ± 0.062 | 3.25 ± 0.4 | 2.49 ± 0.12 | 2.51 ± 0.056 | 5.06 ± 0.058 | 6.42 ± 0.2 | 2.624 ± 0.016 | 3.29 ± 0.12 | 3.61 ± 0.13 | 6.14 ± 1.5
MNRFSKTQIYLHWITLLFVAITYAAMELRGWFPKGSSTYLLMRETHYNAGIFVWVLMFSRLIIKHRYSDPSIVPPPPAWQMKAASLMHIMLYITFLALPLLGIALMAYSGKSWSFLGFNVSPFVTPNSEIKALIKNIHETWANIGYFLIAAHAGAALFHHYIQKDNTLLRMMPRRK | – | – | – | – | 5.19 | 3.2 | – | – | – | – | – | > 16
MNRRRKLLIPLLFCGAMLTACDDKSAENAAAMTPEVGVVTLSPGSVNVLSELPGRTVPYEVAEIRPQVGGIIIKRNFIEGDKVNQGDSLYQIDPAPLQAELNSAKGSLAKALSTASNARITFNRQASLLKTNYVSRQDYDTARTQLNEAEANVTVAKAAVEQATINLQYANVTSPITGVSGKSSVTVGALVTANQADSLVTVQRLDPIYVDLTQSVQDFLRMKEEVASGQIKQVQGSTPVQLNLENGKRYSQTGTLKFSDPTVDETTGSVTLRAIFPNPNGDLLPGMYVTALVDEGSRQNVLLVPQEGVTHNAQGKATALILDKDDVVQLREIEASKAIGDQWVVTSGLQAGDRVIVSGLQRIRPGIKARAISSSQENASTESKQ | 5.76 ± 0.3 | 6.22 ± 0.68 | 6.15 ± 0.1 | 6.24 ± 0.35 | 5.05 ± 0.34 | 2.98 | 6.09 | > 16 | 5.92 ± 0.32 | 10.6 ± 0.88 | 3.99 ± 0.38 | 8.12 ± 0.25
MNSLQILSFVGFTLLVAVITWWKVRKTDTGSQQGYFLAGRSLKAPVIAASLMLTNLSTEQLVGLSGQAYKSGMSVMGWEVTSAVTLIFLALIFLPRYLKRGIATIPDFLEERYDKTTRIIIDFCFLIATGVCFLPIVLYSGALALNSLFHVGESLQISHGAAIWLLVILLGLAGILYAVIGGLRAMAVADSINGIGLVIGGLMVPVFGLIAMGKGSFMQGIEQLTTVHAEKLNSIGGPTDPLPIGAAFTGLILVNTFYWCTNQGIVQRTLASKSLAEGQKGALLTAVLKMLDPLVLVLPGLIAFHLYQDLPKADMAYPTLVNNVLPVPMVGFFGAVLFGAVISTFNGFLNSASTLFSMGIYRRIINQNAEPQQLVTVGRKFGFFIAIVSVLVAPWIANAPQGLYSWMKQLNGIYNVPLVTIIIMGFFFPRIPALAAKVAMGIGIISYITINYLVKFDFHFLYVLACTFCINVVVMLVIGFIKPRATPFTFKDAFAVDMKPWKNVKIASIGILFAMIGVYAGLAEFGGYGTRWLAMISYFIAAVVIVYLIFDSWRHRHDPAVTFTPDGKDSL | 3.19 | – | – | – | – | – | – | – | – | – | – | –
MNTISSLETTDLPAAYHIEQRAHAFPWSEKTFASNQGERYLNFQLTQNGKMAAFAITQVVLDEATLFNIAVDPDYQRQGLGRALLEHLIDELEKRGVATLWLEVRASNAAAIALYESLGFNEATIRRNYYPTTDGREDAIIMALPISM [P0A944] | 5.64 | 4.51 | – | 4.5 ± 0.79 | 3.85 | > 4 | – | 15.9 | 3.845 ± 0.034 | 6.18 | 4.53 | 8.18
MNTIVFVEDDAEVGSLIAAYLAKHDMQVTVEPRGDQAEETILRENPDLVLLDIMLPGKDGMTICRDLRAKWSGPIVLLTSLDSDMNHILALEMGACDYILKTTPPAVLLARLRLHLRQNEQATLTKGLQETSLTPYKALHFGTLTIDPINRVVTLANTEISLSTADFELLWELATHAGQIMDRDALLKNLRGVSYDGLDRSVDVAISRLRKKLLDNAAEPYRIKTVRNKGYLFAPHAWE | 5.2 ± 1.1 | 4.29 ± 0.89 | 3.1 ± 0.46 | 3.95 ± 0.079 | 3.58 ± 0.22 | 3.05 ± 0.78 | 5.03 ± 0.43 | 7.3 ± 0.64 | 3.662 ± 0.028 | 5.27 ± 0.083 | 4.82 ± 0.53 | 7.92 ± 0.17
MNTNVFRLLLLGSLFSLSACVQQSEVRQMKHSVSTLNQEMTQLNQETVKITQQNRLNAKSSSGVYLLPGAKTPARLESQIGTLRMSLVNITPDADGTTLTLRIQGESNDPLPAFSGTVEYGQIQGTIDNFQEINVQNQLINAPASVLAPSDVDIPLQLKGISVDQLGFVRIHDIQPVMQ | 6.62 ± 0.76 | – | – | 6.77 ± 0.76 | 6.22 ± 0.65 | – | 5.54 ± 0.6 | 11.3 | 5.64 ± 1.1 | 13.9 | 6.02 ± 0.69 | 12.7 ± 1.5
MNTPAQLSLPLYLPDDETFASFWPGDNSSLLAALQNVLRQEHSGYIYLWAREGAGRSHLLHAACAELSQRGDAVGYVPLDKRTWFVPEVLDGMEHLSLVCIDNIECIAGDELWEMAIFDLYNRILESGKTRLLITGDRPPRQLNLGLPDLASRLDWGQIYKLQPLSDEDKLQALQLRARLRGFELPEDVGRFLLKRLDREMRTLFMTLDQLDRASITAQRKLTIPFVKEILKL | 5.11 ± 0.35 | 4.947 ± 0.022 | 5.42 ± 0.81 | 4.21 ± 0.21 | 4.29 ± 0.12 | 2.74 ± 0.07 | 5.7 ± 1.3 | 9.48 ± 1.9 | 4.404 ± 0.034 | 7.28 ± 0.61 | 5.14 ± 0.064 | 10.6 ± 0.12
MNTRQLLSVGIDIGTTTTQVIFSRLELVNRAAVSQVPRYEFIKREISWQSPVFFTPVDKQGGLKEAELKTLILEQYHAAGIEPESVDSGAIIITGESAKTRNARPAVMALSQSLGDFVVASAGPHLESVIAGHGAGAQTLSEQRLCRVLNIDIGGGTANYALFDAGKISGTACLNVGGRLLETDSHGRVVYAHKPGQMIVDECFGAGTDARSLTGAQLVQVTRRMAELIVEVIDGTLSPLAQALMQTGLLPAGVTPEIITLSGGVGECYRHQPADPFCFADIGPLLATALHDHPRLREMNVQFPAQTVRATVIGAGAHTLSLSGSTIWLEGVQLPLRNLPVAIPIDETDLVGAWQQALIQLDLDPKTDAYVLALPASLPVRYAAVLTVINALVDFVARFPNPHPLLVVAGQDFGKALGMLLRPQLQQLPLAVIDEVIVRAGDYIDIGTPLFGGSVVPVTVKSLAFPS | 5.67 | – | – | – | – | – | – | – | – | – | – | –
